{"source": "paper PMC6310256", "origin": "cited, not measured here", "biological_target": "complement C5 (human, recombinant) (UniProt P01031)", "sequence (P01031 whole entry)": "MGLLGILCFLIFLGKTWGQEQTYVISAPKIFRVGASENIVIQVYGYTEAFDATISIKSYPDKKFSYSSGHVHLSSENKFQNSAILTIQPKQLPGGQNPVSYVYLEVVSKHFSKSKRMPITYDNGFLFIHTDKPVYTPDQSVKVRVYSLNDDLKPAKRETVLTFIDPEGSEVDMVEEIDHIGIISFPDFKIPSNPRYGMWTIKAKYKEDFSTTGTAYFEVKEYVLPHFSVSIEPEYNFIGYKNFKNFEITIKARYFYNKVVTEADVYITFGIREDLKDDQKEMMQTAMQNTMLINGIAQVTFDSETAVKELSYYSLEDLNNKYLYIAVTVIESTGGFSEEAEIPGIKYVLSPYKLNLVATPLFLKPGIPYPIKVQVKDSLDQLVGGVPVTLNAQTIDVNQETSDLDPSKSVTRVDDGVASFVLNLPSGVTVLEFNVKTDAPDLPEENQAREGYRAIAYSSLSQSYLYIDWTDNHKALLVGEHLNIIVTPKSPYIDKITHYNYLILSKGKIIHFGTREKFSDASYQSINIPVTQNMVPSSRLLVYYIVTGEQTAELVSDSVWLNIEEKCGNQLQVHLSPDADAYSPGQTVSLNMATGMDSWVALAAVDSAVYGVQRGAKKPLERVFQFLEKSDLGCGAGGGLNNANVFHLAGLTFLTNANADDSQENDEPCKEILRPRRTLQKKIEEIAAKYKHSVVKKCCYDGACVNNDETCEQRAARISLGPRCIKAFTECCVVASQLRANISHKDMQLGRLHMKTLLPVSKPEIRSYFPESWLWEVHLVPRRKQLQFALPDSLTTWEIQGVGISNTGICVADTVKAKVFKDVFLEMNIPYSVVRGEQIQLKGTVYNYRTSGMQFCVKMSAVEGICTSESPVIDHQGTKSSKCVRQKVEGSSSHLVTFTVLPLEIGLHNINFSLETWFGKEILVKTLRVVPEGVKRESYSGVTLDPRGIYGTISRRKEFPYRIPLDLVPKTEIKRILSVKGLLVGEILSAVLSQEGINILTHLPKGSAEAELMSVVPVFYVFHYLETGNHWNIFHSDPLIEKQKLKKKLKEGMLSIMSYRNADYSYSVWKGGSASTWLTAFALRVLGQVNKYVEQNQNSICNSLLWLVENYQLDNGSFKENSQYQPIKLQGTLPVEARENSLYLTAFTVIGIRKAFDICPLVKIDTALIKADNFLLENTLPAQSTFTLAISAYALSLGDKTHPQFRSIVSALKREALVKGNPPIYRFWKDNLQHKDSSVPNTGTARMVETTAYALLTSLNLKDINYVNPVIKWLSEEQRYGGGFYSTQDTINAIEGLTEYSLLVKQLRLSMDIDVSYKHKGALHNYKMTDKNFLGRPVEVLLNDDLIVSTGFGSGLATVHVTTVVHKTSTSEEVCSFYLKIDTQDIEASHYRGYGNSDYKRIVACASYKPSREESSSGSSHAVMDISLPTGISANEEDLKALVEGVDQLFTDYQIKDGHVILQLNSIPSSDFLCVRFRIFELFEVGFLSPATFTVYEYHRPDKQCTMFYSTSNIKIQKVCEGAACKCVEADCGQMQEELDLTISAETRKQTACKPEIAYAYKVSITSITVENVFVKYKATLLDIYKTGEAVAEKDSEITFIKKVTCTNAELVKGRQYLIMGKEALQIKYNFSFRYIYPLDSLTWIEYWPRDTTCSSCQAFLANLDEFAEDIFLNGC", "experiment": "SPR (Biacore), as reported in ref 17", "conditions": "cited from earlier work"}
{"substance": "SKY59 (crovalimab, RO7112689) Includes am1-am6 and pm1-pm3 (pm3 is light chain F92K, Kabat), plus charge, deimmunization and Fc mutations that are not listed.", "values": [{"measurement": "kd", "setting": "pH 5.8", "result": 0.0145, "unit": "s⁻¹"}, {"measurement": "KD", "setting": "pH 7.4", "result": 0.152, "unit": "nM"}, {"measurement": "ka", "setting": "pH 7.4", "result": "1.44e+06", "unit": "M⁻¹ s⁻¹"}]}
